Experiments:
[1] = target: T1, CD34 molecules of K562 leukemia cells (Homo sapiens, UniProt P28906); assay: Co-immunoprecipitation of CD34 binding polypeptide, fluorescence intensity by fluorospectrophotometer; details: 2b; for binding of polypeptide to protein co-immunoprecipitated with CD34 antibodies (fluorescence intensity): K562 total protein, CD34 antibody co-immunoprecipitation, NanoDrop 3300, FIGS. 2a
T1 construct: endogenous in cells; host or cells: K562
T1 sequence (P28906 32-385): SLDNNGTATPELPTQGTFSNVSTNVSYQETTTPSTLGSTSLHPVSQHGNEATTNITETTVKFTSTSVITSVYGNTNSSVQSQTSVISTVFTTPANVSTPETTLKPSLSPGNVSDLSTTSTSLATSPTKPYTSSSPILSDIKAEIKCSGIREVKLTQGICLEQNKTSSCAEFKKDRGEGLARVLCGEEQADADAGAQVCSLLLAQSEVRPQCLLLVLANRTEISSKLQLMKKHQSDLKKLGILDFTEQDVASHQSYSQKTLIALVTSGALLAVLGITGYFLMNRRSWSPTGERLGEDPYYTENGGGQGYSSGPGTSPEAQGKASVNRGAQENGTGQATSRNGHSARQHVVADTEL
Experimental: (1) extracting total protein: wash K562 cell once with pre-cooled PBS buffer solution, remove the PBS, add 500 μL non-denatured protein lysate containing protease inhibitor into the culture dish, collect cells into a 1.5 mL centrifuge tube, perform ultra sonication for 4 times, 4 seconds each time, leave them on the ice for 30 minutes, and centrifuge them at 8000 rpm at 4° C. for 20 minutes, transfer the supernatant into a new centrifuge tube to obtain total protein products;
(2) pretreatment of cellular total protein: add 50 μL confining liquid of normal goat serum into the cellular total protein products, and incubate them on the ice for 1 hour, then add 100 μL G-protein microsphere suspension (Calbiochem), incubate them at 4° C. for 20 minutes, centrifuge and remove the G-protein microsphere.
(3) Co- immunoprecipitation: add CD34 antibodies (AR) into the total protein pretreated in step (2), take it as experimental groups, set control groups, wherein equal amount of PBS antibody diluent is added, and incubate them at 4° C. for 8 hours;
(4) Binding of polypeptides and purification of G-protein antibodies: add polypeptides 17 and 19 into respective experimental groups and control group respectively, meanwhile add G-protein microsphere suspension, and incubate them at 4° C. for 4 hours;
(5) Washing and elution: centrifuge at 4° C. to remove the supernatant, use washing liquor to wash for three times, centrifuge and remove the supernatant, add 2× SDS buffer solution in a volume the same as that of G-protein microsphere, treat them at 50° C. for 10 minutes, centrifuge and remove the microspheres, transfer the supernatant into a new EP tube, and add DTT (dithiothreitol) until the final concentration is 100 mM;
(6) Testing fluorescence intensities of experimental groups and control groups using micro fluorospectro photometer (NanoDrop 3300).

[2] = target: T2, CD34 molecules in K562 leukemia cells (Homo sapiens, UniProt P28906); assay: Immunofluorescence co-localisation of CD34 binding polypeptide and CD34 antibodies; details: fixed K562 cells, confocal microscope, FIGS. 3a, 3b
T2 construct: endogenous in cells; host or cells: K562
T2 sequence (P28906 32-385): T1 sequence (P28906 32-385)
Experimental: (1) Preparation of cells: incubate K562 cell suspension in an incubator (37° C., 5% CO2). When the cell density reaches 80%, centrifuge and remove the culture solution, wash it once using PBS buffer solution, centrifuge it, take the cell suspension and drop it onto a glass slide coated with polylysine, and use cold acetone to fix for 10 minutes after drying.
(2) Use PBS buffer solution to wash for three times, 5 minutes each time, and then use 5% BSA confining liquid to seal it at room temperature for 1 hour.
(3) Incubation of primary antibodies: drop the primary antibody diluent of CD34 antibodies (AR) onto a slide, incubate it at 4° C. over night. Use PBS buffer solution to wash it for three times, 5 minutes each time.
(4) Incubation of second antibodies and binding to polypeptide: add polypeptides 17 and 19 into diluted anti-rabbit antibodies labeled by Alexa Fluor 561 respectively, drop them onto cover glasses, incubate them at room temperature and keep shielded from light for 1 hour. Use PBS buffer solution to wash for three times, 5 minutes each time.
(5) Use 1 μg/mL DAPI to stain at room temperature and keep shielded from light for 5 minutes, use PBS buffer solution to wash it for three times, 5 minutes each time.
(6) After mounting with anti-fluorescence quenching agent, use laser scanning confocal microscope to observe and photograph.

K562 cells [3] = assay: Effect of CD34 binding polypeptide on adhesion of CD34 positive cells; format: cell-based; details: 2 μg/mL polypeptide, 6 hours, plates of FN, Collagen I and Mareigel, versus control NC, FIG. 4
Experimental: Add the polypeptides 17 and 19 into incubating holes to set respective experimental groups (final concentration of polypeptide is 2 μg/mL).

[4] = test system: CD34 negative cells (peripheral blood cells); assay: Magnetic separation, binding to CD34 negative blood cells; format: cell-based; details: other blood cells
Experimental: Mix polypeptides 17 and 19 adhering to the surfaces of nano-magnetic beads respectively with K562 cells and peripheral blood cells, and incubate them for 1 hour. Use magnetic sorter to sort, and the sorting efficiency of K562 cells is higher than 95%. […] A schematic diagram of the example is shown in FIG. 5, and the specific operation for magnetic separation of the example can be performed according to conventional magnetic techniques in the art.

MNNG/HOS cells = assay: Binding between CD34 binding polypeptide and human osteosarcoma cell line MNNG/HOS; format: cell-based; details: 2 μg/ml, 37° C., 2 hours, CD34 negative cell line, fluorescence microscope
Experimental: Add 2 μg/ml polypeptides 17 and 19 into two culture dishes of well-grown MNNG/HOS cells (density of 80%) respectively, incubate them in an incubator at 37° C. for 2 hours, remove the culture solution, use 1 ml PBS to wash them for 3 times, add 5 ml culture solution, and use a fluorescence microscope to observe the binding between polypeptide and MNNG/HOS cells.

[5] = test system: ductal epithelial cells and vascular endothelial cells of salivary gland; assay: Immunofluorescence binding to salivary gland tissue sections; format: cell-based, human; details: 2 μg/mL polypeptide, 1 hour, room temperature, 6 μm frozen sections, FIG. 6a
Experimental: In the example, immunofluorescence is used to test the binding between polypeptide and ductal epithelial cells and vascular endothelial cells of salivary gland.
Embed the human salivary gland tissues with OCT, and slice them in a thickness of 6 μm at −20° C., fix with acetone for 15 minutes, use PBS to wash them for three times, 5 minutes each time. Incubate them with 2 μg/mL CD34 binding polypeptide (polypeptide 17) at room temperature for 1 hour, use PBS to wash for three times, 10 minutes each time. Drop 20 μL anti-fluorescence quenching agent for mounting, and preserve them being protected from light at 4° C., fluorescence microscope is used to observe and photograph.

K562 cells [6] = assay: Effect of CD34 binding polypeptide on proliferation of K562 cells; format: cell-based; details: 2 μg/ml polypeptide, replenished every 48 hours, counted for 6 days, FIG. 9
Experimental: (1) Inoculate well-grown K562 cells in a 24-hole plate in cell concentration of 6000/ml/hole; set two experimental groups, wherein polypeptides 17 and 19 (polypeptide concentration is 2 μg/ml) are added into culture solutions respectively; set control groups, wherein polypeptide diluent in the same amount of polypeptide is added into the culture solution.
(2) Count once every 24 hours, replenish CD34 binding polypeptide (polypeptide concentration is 2 μg/ml) once every 48 hours, and the counting lasts for 6 days; repeat the experiment three times;
(3) draw cell growth curves, wherein the Y-axis is indicative of mean value of cell density each day, the X-axis is indicative of incubation time.

polypeptide 17: synthetic CD34 binding polypeptide displayed by phage 17, amino acid sequence SEQ ID NO: 1 (SSFASKKGYPFNRMCAS; Non-antibody binding protein capable of binding to CD34)
binding of polypeptide to protein co-immunoprecipitated with CD34 antibodies (fluorescence intensity) [1]: can specifically bind
binding to CD34 molecules (overlap of polypeptide green fluorescence and CD34 antibody red fluorescence) [2]: have bound to CD34 molecules
adhesion of K562 cells (count of adherent cells) (K562 cells [3]): inhibit the adhesion of K562 cells significantly
binding to CD34 negative cells [4]: won't bind to CD34 negative cells
binding between fluorescent polypeptide and MNNG/HOS cells (MNNG/HOS cells): No binding
binding to ductal epithelial cells and vascular endothelial cells of salivary gland tissue [5]: bind to ductal epithelial cells and vascular endothelial cells of salivary gland tissue
proliferation rate of K562 leukemia cells versus control group (K562 cells [6]): no significant difference

polypeptide 19: synthetic CD34 binding polypeptide displayed by phage 19, amino acid sequence SEQ ID NO: 2 (SSLGWWGPRRDFPGRRERIYLGIPWLSLLGSGAPSPV; Non-antibody binding protein capable of binding CD34)
binding of polypeptide to protein co-immunoprecipitated with CD34 antibodies (fluorescence intensity) [1]: can specifically bind
binding specificity, comparison between polypeptides ([1]; co-immunoprecipitation with CD34 antibodies, FIGS. 2a): better binding specificity than the polypeptide 17
binding to CD34 molecules (overlap of polypeptide green fluorescence and CD34 antibody red fluorescence) [2]: have bound to CD34 molecules
adhesion of K562 cells (count of adherent cells) (K562 cells [3]): inhibit the adhesion of K562 cells significantly, especially the culture solution containing the polypeptide 19
binding to CD34 negative cells [4]: won't bind to CD34 negative cells
binding between fluorescent polypeptide and MNNG/HOS cells (MNNG/HOS cells): No binding
proliferation rate of K562 leukemia cells versus control group (K562 cells [6]): no significant difference

Reference: patent US20180169177A1, “POLYPEPTIDE SPECIFICALLY BINDING TO CD34 MOLECULE AND USE THEREOF” (Guangzhou Yidai Pharmaceutical Co., Ltd., priority 2015, published 2018)
